B1: 3RA positive aptamer sequence 3 (ssDNA)
DNA: CACGGTAGCACGCATAACGCCGAGTTCCATTATAAAGTCCGCGCCCGACTACCCCCGTTATGCGTGGAGTGCTGGACATGC
B2: SA-positive aptamer reverse strand (ssDNA)
DNA: TTCACGGTAGCACGCATAGGCAACCAAGTAGTCATTTCGGAACCTGCGATCGGTGCGTCCATCTGACCTCTGTGCTGCT
modifications: [NONE]
B3: 3RA positive aptamer sequence 1 (ssDNA)
DNA: TCACGGTAGCACGCATAGGGGAGGATTCCGACTAAGTTTCCGTCGCATGAGCGTTGCTATGCGTGGAGTGCTGAAGTTGGC
B4: 3RA positive aptamer sequence 4 (ssDNA)
DNA: AATGGTCCAGCACTCCACGCATAACGAATAGGTCCTAAACGAGGGGTCAGGGAAGTCGCCGGTTATGCGTGCTACCGTGAA
B5: 3RA positive aptamer sequence 2 (ssDNA)
DNA: CGAAGTTCAGCACTCCACGCATAGCCCTCGGAGGTCTACGAGAATGCCTACAGCCCTGTGCCCTATGCGTGCTACCGTGAA
B6: tagged SA-positive aptamer (GGCTAC tag) (ssDNA)
DNA: GGCTACAGCAGCACAGAGGTCAGATGGACGCACCGATCGCAGGTTCCGAAATGACTACTTGGTTGCCTATGCGTGCTACCGTGAAGGCTAC

Columns and labels:
Details in all cases: tags: Alexa Fluor 647 label (SA-alexa647); chain copies: 4
streptavidin (SA) [1] = biological target: T1, streptavidin (SA) (UniProt P22629 P22629:25-183); assay: NY selection: no signal with 500 nM SA alone
Experimental: (3) After sequencing was completed, target protein SA at a concentration of 500 nmol/L and a combination of target proteins SA and 3RA at 500 nmol/L each were sequentially introduced into the flowcell, followed by incubation. After each incubation was completed, 300 μL of PBST was used to wash the channels. After washing was completed, a 640 nm laser was used for excitation, and the surface of the solid carrier was imaged to collect the corresponding emission signals. Before introducing the next target at each time, the channels were washed with 750 μL of NaOH to remove the previously bound target.

streptavidin (SA) [2] = biological target: T1, streptavidin (SA); assay: 0 of 2808 (30% mix) and 2 of 575 (10% mix) target-bound clusters were reverse strand
streptavidin (SA) [3] = biological target: T1, streptavidin (SA); assay: flowcell clusters in mixture library; signal graded with 1.95-500 nM SA-alexa647, weak below 31 nM
Experimental: (3) Into the four flow channels of the sequencing flowcell (L1, L2, L3, and L4 respectively), SA-alexa647 at concentrations of 500 nmol/L, 125 nmol/L, 31.25 nmol/L, and 1.95 nmol/L was introduced, respectively, and the flowcell was incubated for 30 minutes for in situ hybridization. After incubation, 300 μL of PBST was used to wash the channels to remove unreacted fluorescently labeled SA-alexa647.

T1 sequence (P22629 25-183, one chain of several): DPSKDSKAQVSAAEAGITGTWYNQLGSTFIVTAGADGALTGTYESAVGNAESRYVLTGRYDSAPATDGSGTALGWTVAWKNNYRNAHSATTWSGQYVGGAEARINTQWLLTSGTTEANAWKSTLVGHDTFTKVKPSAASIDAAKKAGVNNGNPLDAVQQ

| Binder | binding result (streptavidin (SA) [1]) | other results |
| --- | --- | --- |
| B1 | no binding |  |
| B2 |  | binding result (streptavidin (SA) [2]): no binding |
| B3 | no binding |  |
| B4 | no binding |  |
| B5 | no binding |  |
| B6 |  | binding result (streptavidin (SA) [3]): binds |

Reference: US20260035692, “METHOD FOR SCREENING FOR APTAMER BY SEQUENCING” (GeneMind Biosciences Co., Ltd., published 2026)
